Test results taken from publication PMC10249358 (2023).

B1: NOP53(192–207) peptide displayed on M13 phage [human] / GST-tagged merlin FERM domain [human] (parent complex)
chain 1: FYDLWASDNPLDRPLV
chain 2: FTVRIVTMDAEMEFNCEMKWKGKDLFDLVCRTLGLRETWFFGLQYTIKDTVAWLKMDKKVLDHDVSKEEPVTFHFLAKFYPENAEEELVQEITQHLFFLQVKKQILDEKIYCPPEASVLLASYAVQAKYGDYDPSVHKRGFLAQEELLPKRVINLYQMTPEMWEERITAWYAEHRGRARDEAEMEYLKIAQDLEMYGVNYFAIRNKKGTELLLGVDALGLHIYDPENRLTPKISFPWNEIRNISYSDKEFTIKPLDKKIDVFKFNSSKLRVNKLILQLCIGNHDLFMRRRK
B2: FAM83G(111–126) peptide displayed on M13 phage [human] / GST-tagged merlin FERM domain [human] (parent complex)
chain 1: AEPLPSLEYWPQKSDR
chain 2: B1 chain 2

Variants of: B1
Assay: clonal phage ELISA; ratio of A450 on immobilized GST-merlin to A450 on GST, normalized to 100% of WT peptide; no-peptide phage control est. 32%; read off a plot

Variant | percent of parent
chain 1 FYDLKASDNPLDRPLV [chain 1 W5K] | ~31 % binding
chain 1 FKDLWASDNPLDRPLV [chain 1 Y2K] | ~16 % binding
chain 1 FYALWASDNPLDRPLV [chain 1 D3A] | ~29 % binding
chain 1 FYKLWASDNPLDRPLV [chain 1 D3K] | ~33 % binding
chain 1 FYDLWASDNPLDRKLV [chain 1 P14K] | ~50 % binding
chain 1 FYDLWASDNPLDRPKV [chain 1 L15K] | ~16 % binding
chain 1 FYDLWASANPLDRPLV [chain 1 D8A] | ~110 % binding
chain 1 FYDLWASKNPLDRPLV [chain 1 D8K] | ~94 % binding
chain 1 FYDLWASDNKLDRPLV [chain 1 P10K] | ~26 % binding
chain 1 FYDLWAADNPLDRPLV [chain 1 S7A] | ~120 % binding
chain 1 KYDLWASDNPLDRPLV [chain 1 F1K] | ~29 % binding
chain 1 FYDLWKSDNPLDRPLV [chain 1 A6K] | ~59 % binding
chain 1 FYDLWASDAPLDRPLV [chain 1 N9A] | ~93 % binding
chain 1 FYDKWASDNPLDRPLV [chain 1 L4K] | ~29 % binding
chain 1 FYDLWASDNPLDAPLV [chain 1 R13A] | ~97 % binding
chain 1 FYDLWASDNPKDRPLV [chain 1 L11K] | ~14 % binding
chain 1 FYDLWASDNPLDRPLK [chain 1 V16K] | ~61 % binding
chain 1 FYDLWASDNPLARPLV [chain 1 D12A] | ~24 % binding

Variants of: B2
Assay: clonal phage ELISA; ratio of A450 on immobilized GST-merlin to A450 on GST, normalized to 100% of WT peptide; no-peptide phage control est. 29%; read off a plot

Variant | percent of parent
chain 1 AEPLPSLEKWPQKSDR [chain 1 Y9K] | ~21 % binding
chain 1 AEPLPSLEDWPQKSDR [chain 1 Y9D] | ~13 % binding
chain 1 AEPLPSLEYWPQDSDR [chain 1 K13D] | ~81 % binding
chain 1 AEPLPSLEYWPQASDR [chain 1 K13A] | ~91 % binding
chain 1 AEPLPSLAYWPQKSDR [chain 1 E8A] | ~17 % binding
chain 1 AEPLPSLEYKPQKSDR [chain 1 W10K] | ~23 % binding
chain 1 AEPLPSKEYWPQKSDR [chain 1 L7K] | ~84 % binding
chain 1 AEPKPSLEYWPQKSDR [chain 1 L4K] | ~86 % binding
chain 1 AEPLKSLEYWPQKSDR [chain 1 P5K] | ~68 % binding
chain 1 AEPLPSLEYWPQKADR [chain 1 S14A] | ~98 % binding
chain 1 AEPLPSLEYWPQKSAR [chain 1 D15A] | ~110 % binding
chain 1 AEPLPSLEYWPQKSDA [chain 1 R16A] | ~99 % binding
chain 1 AEPLPSLEYWPAKSDR [chain 1 Q12A] | ~76 % binding
chain 1 AEPLPSLEYWKQKSDR [chain 1 P11K] | ~19 % binding
chain 1 AEPLPELEYWPQKSDR [chain 1 S6E] | ~88 % binding
